Source: patent publication US20230036060A1, “DUAL-CONTROLLED DRUG AND PHOTOACTIVATABLE SYSTEM FOR SPATIOTEMPORAL CONTROL OF CELL THERAPY” (THE REGENTS OF THE UNIVERSITY OF CALIFORNIA, priority 2019, published 2023)

Tests used:
[1] = molecular target: CIB1-CreC(106-343) (Arabidopsis thaliana) (UniProt Q8GY61); assay: cell-based or functional assay
NLS-pMag-CreC = assay: cell-based or functional assay
NLS-pMag-CreC, sequence (chain, as listed by the source): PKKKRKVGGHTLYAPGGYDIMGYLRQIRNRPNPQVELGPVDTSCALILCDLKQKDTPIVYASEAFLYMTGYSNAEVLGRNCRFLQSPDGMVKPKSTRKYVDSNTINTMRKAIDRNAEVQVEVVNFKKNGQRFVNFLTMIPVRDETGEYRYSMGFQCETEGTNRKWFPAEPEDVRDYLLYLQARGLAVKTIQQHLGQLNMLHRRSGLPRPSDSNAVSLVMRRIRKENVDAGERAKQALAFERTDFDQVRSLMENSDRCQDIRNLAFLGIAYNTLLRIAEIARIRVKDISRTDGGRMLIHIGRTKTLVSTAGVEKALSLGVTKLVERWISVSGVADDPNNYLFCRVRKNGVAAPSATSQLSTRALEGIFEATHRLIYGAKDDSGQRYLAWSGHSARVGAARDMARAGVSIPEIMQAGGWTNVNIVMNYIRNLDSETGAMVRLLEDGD

CreN(19-59)-nMag-NLS, sequence (P06956 19-59): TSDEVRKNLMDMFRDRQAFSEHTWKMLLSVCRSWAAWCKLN

| fold increase in Cre-loxP recombination, PA-Cre-C, Light against Dark [1] | normalized % recombined (EGFP+) EGFP Reporter HEK293T cells, PA-Cre-C, Light (30 W/m2, 30 s) [1] | fold increase in Cre-loxP recombination, PA-Cre-M, Light against Dark (NLS-pMag-CreC) | fold increase in recombined PA-Cre-M+ CAR Reporter Jurkat T cells, Light against Dark (NLS-pMag-CreC) | normalized % recombined (CAR-EGFP+) PA-Cre-M+ CAR Reporter Jurkat T cells, Dark (NLS-pMag-CreC) | normalized % recombined (CAR-EGFP+) PA-Cre-M+ CAR Reporter Jurkat T cells, Light, Protocol E (NLS-pMag-CreC) | normalized % recombined (EGFP+) EGFP Reporter HEK293T cells, PA-Cre-M, Light (30 W/m2, 30 s) (NLS-pMag-CreC) | normalized % recombined EGFP Reporter HEK293T cells, PA-Cre-M, Ambient light (NLS-pMag-CreC) | normalized % recombined EGFP Reporter HEK293T cells, PA-Cre-M, Ambient, Protocol B experiment (NLS-pMag-CreC) | normalized % recombined EGFP Reporter HEK293T cells, PA-Cre-M, Dark (pulsatile protocol experiment) (NLS-pMag-CreC) | normalized % recombined EGFP Reporter HEK293T cells, PA-Cre-M, Dark (spontaneous background) (NLS-pMag-CreC) | normalized % recombined EGFP Reporter HEK293T cells, PA-Cre-M, Dark, Protocol B experiment (NLS-pMag-CreC) | normalized % recombined EGFP Reporter HEK293T cells, PA-Cre-M, Light, Protocol B (NLS-pMag-CreC) | Substance |
| --- | --- | --- | --- | --- | --- | --- | --- | --- | --- | --- | --- | --- | --- |
| 2.1 fold | 12.1% | – | – | – | – | – | – | – | – | – | – | – | CRY2(L348F)-CreN(19-104) (from UniProt Q96524 1-612; P06956 19-104) |
| – | – | 3.4 fold | 4.1 fold | 5.2% | 21.2% | 90.8% | 28.9% | 45.2% | 20.4% | 26.7% | 32.9% | 84.8% | CreN(19-59)-nMag-NLS (from UniProt P06956 19-59) |
